Where a chain is given by its changes, count along the chain named.
B1: No. O4 optimized clone (screening of scFv phage library of No. 8 CDR3 variants) (scFv, part only; not given: scFv linker, part only)
scFv, part: QVQLVESGGGLVKPGGSLRLSCAASGFTFSSYSMNWVRQAPGKGLEWVSSISASDGATYYADSVRGRFTISRDNSRSTLYLQMNSLRAEDTAVYYCAKTLAGYSGPMGGMDVWGQGTTVTVSSDIQMTQSPSSLSASVGDRVTITCRASRDISNYLAWYQQKPGKAPKSLIYGASNLQSGVSSQFSGSGSGTDFTLTINSLQPEDSATYYCQQYYSYPLTFGGGTKVDIKR
B2: No. O10 optimized clone (screening of scFv phage library of No. 8 CDR3 variants) (scFv, V domains shown)
VH: QVQLVESGGGLVKPGGSLRLSCAASGFTFSSYSMNWVRQAPGKGLEWVSSISASDGATYYADSVRGRFTISRDNSRSTLYLQMNSLRAEDTAVYYCAKILVGYSGPMGGMDVWGQGTTVTVSS
VL: DIQMTQSPSSLSASVGDRVTITCRASRDISNYLAWYQQKPGKAPKSLIYGASNLQSGVSSQFSGSGSGTDFTLTINSLQPEDSATYYCQQYYSYPLTFGGGTKVDIKR
B3: No. O12 optimized clone (screening of scFv phage library of No. 8 CDR3 variants) (scFv, V domains shown)
VH: B2 VH with I99S, V101A, G102S
VL: B2 VL
B4: No. 3 monoclonal scFv phage (scFv)
chain: QMQLVQSGGGLVQPGRSLKLSCAASGFSFDDYAMHWVRQAPGKGLEWVATIKDDGSQTYYVDSVKGRFTISRDNAKSSLFLQMNSLRAEDTAVYYCTTEGLMNGLHFDMWGQGTMVTVSSLVLTQPPSVSGAPGQGVTISCTGSSSNIGAGYDVHWYQQFPGTAPKLLISGNNNRPSGLPDRFSGSKSGTSASLAITGLQAEDEADYYCQSYDSRLGVVFGGGTKLTVLG

Legend:
[1] = molecular target: Ang2 immobilized on a biosensor (Octet off-rate screening) (Homo sapiens (Human)) (UniProt O15123); test: dissociation rate screening of optimized clones (method as in Example 3, Octet; not restated)
[2] = molecular target: T1, Ang2 immobilized on a biosensor (Octet off-rate screening) (Homo sapiens (Human), UniProt O15123 19-496); test: as above
T1 construct: also called Ang2 antigen; not shown: It is a His tag if hAng2-his (R&D 623-AN/CF) was used, or an Fc if hAng2-Fc (PharmAbcine) was used
T1 sequence: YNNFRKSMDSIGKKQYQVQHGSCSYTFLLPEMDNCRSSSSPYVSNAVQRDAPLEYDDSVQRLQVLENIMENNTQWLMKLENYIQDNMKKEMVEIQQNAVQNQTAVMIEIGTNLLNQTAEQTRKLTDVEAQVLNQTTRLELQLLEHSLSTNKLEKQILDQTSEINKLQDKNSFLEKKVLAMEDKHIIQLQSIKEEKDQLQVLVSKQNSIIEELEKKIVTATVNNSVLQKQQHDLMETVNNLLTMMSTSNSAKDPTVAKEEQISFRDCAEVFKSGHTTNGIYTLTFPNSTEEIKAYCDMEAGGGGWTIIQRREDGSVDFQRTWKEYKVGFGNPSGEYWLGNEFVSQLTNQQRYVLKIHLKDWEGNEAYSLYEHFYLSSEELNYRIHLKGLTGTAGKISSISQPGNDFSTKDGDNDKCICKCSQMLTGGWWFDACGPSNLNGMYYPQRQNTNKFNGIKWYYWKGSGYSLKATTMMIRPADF

[3] = molecular target: T2, His-tagged human Ang1 (R&D systems, 923-AN/CF) (human, UniProt Q15389 20-498, limits assumed); test: phage ELISA, antigen coated at 1 µg/ml, anti-M13-HRP
T2 construct: Bought protein; also called hAng1-his; not shown: His tag
T2 sequence (looked up): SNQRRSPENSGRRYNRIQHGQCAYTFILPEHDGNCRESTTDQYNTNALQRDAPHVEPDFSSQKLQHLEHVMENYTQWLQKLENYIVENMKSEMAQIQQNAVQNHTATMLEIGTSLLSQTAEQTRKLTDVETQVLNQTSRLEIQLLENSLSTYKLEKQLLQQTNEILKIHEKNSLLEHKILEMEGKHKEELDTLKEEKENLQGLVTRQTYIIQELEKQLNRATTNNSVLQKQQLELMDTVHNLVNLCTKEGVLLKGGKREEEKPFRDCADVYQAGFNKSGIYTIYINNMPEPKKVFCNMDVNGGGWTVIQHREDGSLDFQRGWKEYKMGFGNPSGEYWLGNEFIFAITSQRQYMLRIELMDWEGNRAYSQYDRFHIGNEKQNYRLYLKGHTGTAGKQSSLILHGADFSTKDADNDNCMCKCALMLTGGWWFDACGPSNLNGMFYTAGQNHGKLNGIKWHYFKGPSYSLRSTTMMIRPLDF

| Binder | koff [2] | other results |
| --- | --- | --- |
| B1 |  | koff [1]: 9.01e-05 s⁻¹ |
| B2 | 3.92e-05 s⁻¹ |  |
| B3 | 1.7e-05 s⁻¹ |  |
| B4 |  | OD [3]: 0.025 OD |
